Measurements reported in the nanobody polyreactivity screen of Harvey et al. (2022).

Assay: yeast display, Sf9 membrane polyspecificity reagent, FACS + sequencing; frameworks hold sequencing errors
Method in brief: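 After 36–48 hours of galactose induction, yeast (Saccharomyces cerevisiae BJ5465) displaying a synthetic nanobody library were stained at 4 °C for 1 hour with 10% biotinylated, detergent-solubilized Sf9 membrane reagent. Streptavidin microbeads enriched the stained cells before FACS sorting into low and high (top ~1%) gates on anti-HA and streptavidin fluorescence. Each clone's polyreactivity label reflects its gate of origin.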

Sequence | polyreactivity (PSR sort gate)
QDQLVESGGGLVQAGGSLRLSCAASGRTYGSYAMGWYRQAPGQEMELVAAISRSDGSTYYADSVKGRFTISRDNAKNTVYLQMNSLKPEDTAVYYCAAKRWYVSYDYDYWGQGTQVTVSS | high polyreactivity
QVQLVESGGGLVQAGGSLRLSCAASGSIFDQYTMGWSRQAPGKERELVAAIRFSGGSTSYADSVKGRFTISRDNAKNTVYLQMNSLIPEDTAVYYCNVDAITWWDWEDFDYWGQGTQVTVSS | low polyreactivity
QVQLVESGGGLVQAGGSLRLSCAASGFTSGYNLMGWYRQAPGKERELVAAISWRGTSTYYADSVKGRFTISRDNAKNTVYLQMNSLKPEDTAVYYCAARQRWYWRGYDYWGQGTQVTVSS | high polyreactivity
QVQLVESGGGLVQAGGSLRLSCAASGRNFIYNAMGWYRQAPGKERELVAAISRSGGSTNYADSVKGRFTISRDNAKNTVYLQMNSLKPEDTAVYYCAVDSGRYYYYLGFSTRYYWGQGTQVTVSS | high polyreactivity
QVQLVESGGVLVQAGGSLRLSCAASGRIFRANTMGWYRQAPGKEMELVANISKNGGRTYYADSVKGRFTISRDNAKNTVYLQMNSLKPEDTAVYYFNAEWRGWRFLEYGSYIYQSGYWGQGTQVTVSS | high polyreactivity
QVHLVESGGGLVQAGGSLRLSSAASGSTFDYYAMGWYRQAPGKERELVAAISVGGGGTTYADSVKGRFTISRDNAKNTVYFQMNCLNPEDTAVYYCAARYRTRKRPGSKYYYWGQGTQVTVSS | high polyreactivity
QLQLVDSGGGLVQAGGSLRLSCAASGKTISSYAMGWYRQAPGKEREFVAAISRGARTYYADSVKGRFTISRDNAKNTVYLQMNSLKPEDTAVYYCATRWPHYGGYYYWGQGTQVTVSS | high polyreactivity
QVQLVESGGGLVQAGGSLRLSCAASGSTFHRNAMGWYRQAPGKERELVAAISWRGGSTYYADSVKGRFTISRDNAKNNVYLLMNSLKPEDTAVYYCNAVERYWDYGYWGQGTQVTVSS | low polyreactivity
QVQLVESGGGLVQAGGSLRLSCAASGSTFSGYVMGWYRQAPGKERELVAAITGRGGNTYYADSVKGRFTISRDNGKNTVYLQMNSLKPEDTAVYYCAAARRSYQYGYWGQGTQVTVSS | high polyreactivity
QVQLVESGGGLVQAGGSLRLSCAASGRTFTGYAMGWYRKAPGKERELVAAIRRTASTYYADSVKGRFTISRDNAKNTVYLQMNSLKPEDTAVYYCAVRAAHRGTYYYWGQGTQVTVSS | high polyreactivity
QVQLVESGGGLVQAGGSLRLSCAASGSTFYAYDMGWYRQAPGKERELVAAISSGGSTYYADSVKGRFTISRDNAKNTVYLQMNSLKPEDTAVYYCATEYTYELEASEPSDYDYWGQGTQVTVSS | low polyreactivity
QVQLVESGGGLVQAGGSLRLSCAATGRTFRVYAIGWYRHAHAKEREFVATISVRGGSTYYADSVKGRFTISRDNAKNTVYLQMNSLKPEDTAVYYCAADSYPYVYALYDYWGQGTQVTVSS | low polyreactivity
QVQLVESGGGLVQAGGSLRLSCAASGRISVFYTMGWYRQAPGKERELVAVIRTSGGRTNYADSVKGRFTISRDNAKNTVYLQMNSLKPEDTAVYYCAARVVRYGYKYYYWGQGTQVTVSS | low polyreactivity
QFQLVESGGGLVQPGGSLRLSCAASGGIFKRYAIGWYRQAPGKERELVAGISRRSGRTYYADSVKGRFTISRDNAKNTVYLQMNSLKPEDTAVFYCAARGIGGYDYWGHGTQVTVSS | high polyreactivity
QVQLVESGGGLVQAGGSLRLSCAASGSTFHWYAMGWYRQAPGKERELVAVITWSGGSTYYADSVKGRFTISRDNAKNTVYLQMNSLKPEDTAVYYCARDWYRYKLWLFRGQDGDYWGQGTQVTVSS | low polyreactivity
QVQLVESGGGLVQAGGSLRLSCAASGLTFEYNAMGWYRQAPGKERELVASISSGGGTNYADSVKGRFTISRDNAKNTVYLQMNSLKPEDTAVYYCATDNYDWSCWAFRGYWYDYWGQGTQVTVSS | low polyreactivity
LVQLVESGGGLVHAGGSLRLSCAASGSTFNIYAMGWYRQAPGKERELVAAISSSGGRTYYADSVKGRFTISRDNAKNTVYFQMIRLKPEDTAVYYCAARSRRVSLIRDSYGYWGQGTQVNVSS | high polyreactivity
QVQLVESGGGLVQAGGSLRLSCAASGSTQYGYAMGWYRQAPRKERELVAAINTGGSTNYADSVKGRFSISRDNAKNSVYLQMNSLKPEDTAVYYCAADYEWDAFSYDYWGQGTQVTVSS | low polyreactivity
QVQLVESGGGLVQAGGSHRLSCAASGSIFWSYAMGWYRQAPGKARELVASISRRGGSTSYADSVKGRFTISRDNAKNTVYLQMNSLKPEDTAVYYCNAYGRQNHYYWGQGTQVTVSS | high polyreactivity
QGQLVESGGGLVQAGGSLRFSCAASGRTLSAHAMGWYREAPGTERELVATISTRGGRTYYADSVKGRFTISRDHAKNTVYIQMNSLKPEHTAVYSCAVTIRAKYTLKEDYWGQGTQVTVSS | low polyreactivity
QVQLVESGGGLVQAGGSLRLSCAASGRIFQKNAMGWYRQAAGKERELVAAISGSGSTTNYADSVKGRFTISRDNAKNTVYLQMNSLKPEDTAVYYCATGKRGVSGRGYRYVDYDYWGQGTQVTVSS | high polyreactivity
QVQLVESGGGLVQAGGSLRLSCAASGFILGGYAMGWYRQAPGKERELVAAISWSSGSTYYADSVKGRFTISRDNAKNTVYLQMNSLIPEDTAVYYCAAVGAYDYWGQGTQVTVSS | low polyreactivity

Sequence | polyreactivity (PSR sort gate)
QVQLVESGGGLVQAGGSLRLSSGASGLTIRRYAMGWSRQAPGKEREFVATISQNGGRTYYADSVKGRFTISRDNAKNTFYLQMNSLKPEDTAVYYCAAEDWRWGYDYWGQGTQVTVSS | high polyreactivity
QVQLVESGGGLVQAGGSLRLSCAASGRILYSYAMGWYRQAPGKERELVAAISSTGSTYYADSVKGRFTISRDNAKNTVYLQMNSLKPEDTAVYYCAATFYPYQVHHYYYWGQGTQVTVSS | low polyreactivity
QVQLVESGVGLVNAGGSLRLSCAASGYIFSPNVMGWYRQAPGKERELVAAITRGGGTYYADSVKGRFTISRDNAKNTVYLHLNSLKPEDTAVYYCNEDYTLSVYGTTYCYNYWGQGTQVTVSS | high polyreactivity
QVQLVESGGGLVQAGGSLRLSCAASGSSFLSNTMGWYRQAPGKECELVAAITSGGDTSYADSVKGRFTISRDNAKNTVYLHMKILKADDTAVYYCNVDTSATCYSSEYDYWGQGTQVSVSS | low polyreactivity
QVQLVESGGCLVQAGGRLRLSCAASGFTFGYYAMGWYIQAPGKERELVAAIDWSGGTTYYADSVKGRFTISRDNAKNTVYLQMNSLKPEDTAVYYCAADVVEEDDLEFYYWGQGTQVTVSS | high polyreactivity
QVQLVESGGGLVQAGGSLRLSCAASGRNFKIYTMGWYRQAPGKERELVAAISSSGRTYYADSVKGRFTISRDNAKNTVYLQMNSLKPEDTAVYYCAAVPYTRWKGADGDYWGQGTQVTVSS | high polyreactivity
QVQLGESGGGLVQAGGSLRLRCAASGSNFRTYVMGWYRQGPGKERELVAAISRRGGSTYYADSVKGRFTISRDNAKNTVYLPMNSLKPEDTAVYNCAAEDEYSLEYSTLDYWGQGTQVTVSS | high polyreactivity
QVQLVESGGALVQAGGSLRLSCAASGFIFYSYAMGWYRHAPGKETELVAAITEDGDSTYYADSVKGRFTISRDNAKNTVYLQMNSLKPEDSAVYYCNTDLTFNGTSGDYDYWGQGTLVTVSS | low polyreactivity
QFQLVESGGGLVQAGGSLRLSCAASGNILPAYAMGLYRQAPGKERELVAAISKSGGRTYYADSVKGRFTISLDNAKNTVYLQMNSLKPEDTAVYYALLTVLRAVPYTVRYDYWGQGTQVNVSS | high polyreactivity
QDQLVESGGGLVQAGGSLRLSCAASGRIFGLYAMGCYRPAPGKERELVAAYADSVKGRFTISRDNAKNTVYLQMNSLKPEDTAVYYCAKGPLYAGYSIHLRDFNYWGQGTQVTVSS | low polyreactivity
QVQLLESGGGLVQAGGSLSLTCAASGSTFTRYVMGWYRQAPGTETELVAAISSNGGRTYYADSVKGRFTISRDNAKNTVDLQMTSLKPEDTAVYYCNLVRYAYNASVVYWGQGTQVTVSS | high polyreactivity
QVQLVESGGGLVQAGGSLRISCAASGFTFHTYAMGWYRQAPGKERELVAAIDSSGGITYYADSVKGRFTISRDNAKNTVYLQMTSLKPEDTAVYYCAAVFLLFGFEWSYDYWGQGTQVTVSS | low polyreactivity
QVQLVESGGVLVQAGGSLRLSCAASGRIFRYNTMGWDRQAPGKERELVATITRGSSTNYADSVKGRFTISRDNAKNTVYLQMNSLKPEDTAVYYCAASVWKWHSYLGRYSYIGYDYWGQGTQVTVSS | high polyreactivity
QVQLVESGGGLVQAGGSLRLSCAASGSTFANNAMGWYRQAPGKERELVAAISWSGGSTYYADSVKGRFTISRDNAKNTVYLQMNSLKPEDTAVYYCAADSPRYGGYGYWGQGTKVTVSS | low polyreactivity
QVQLVESGGGLVQAGGSLRLSCAASGSIFWTNAMGWYRQAPGKERELVAAIRVSTGSTYYADSVKGRFTISRDNAKNTVYLQMNSLKPEVTAVYYFAARTYGWGYDYWGQGTQVTVSS | low polyreactivity
QVQLVESGGGLVQAGGSLRLSCAASGSIFSTYAMGGYRQAPGKERELVAAIRDSGDRTYYADSVKGRFTISRDNAKNTVYLQMNSLKPDDTAVYYCYARWQEPLKYDYWGQGTPVTVSS | low polyreactivity
QVQLVESGGGLVQAGGSLRLSCAASGSIFGNNAMGWYRQAPGKERELVAAITSSGGSTYYADSVKGRFTISRDNAKNTVYLQMNSLKPEDTAVYYCATEWSGYTYWFYEWEYGYWGQGTQVTVSS | high polyreactivity
QVQLVESGGGLVQAGGSLRLSCAASGFIFSYNAMGWYREAPGKERELVAAISSRGGSTYYADSVKGRFTISRDNAKNTVYLQMNSLKPEDTADYYCAVASRRVYTAPYDYWGQGTQVTVSS | high polyreactivity
QVQLVESGGGLVQAGGSLSLSCAAYGFTFERNGMGWYRQAPGKERELVAAISIRGGSTYYADSVKGRFTMSRDNAKNTVSLQMNSLKPEDTAVYYCAVVARRAFDYWGQGTQVTVSS | high polyreactivity
QVQLVESGGGLVQAGGSLRLSCAASGSIFVWNARGWYRQAPVKERELVAAISYTDGSTYYADFVKGRFTISRDNAKNTVYLQMNSLKPEDTAVYFCAAAITRSYTGSEYDYWGQGTEVTVSS | low polyreactivity
QVQLVESGGGIVQAGGSLRLSCAASGIIFKAYAMGWYRKAPGKERELVAAITTGSTTYADSVKGRFTISRDNAKNTVYLQMNSLKPEDTAVYYCNARFDWGWPGYEYDYCGQGTQVTVSS | low polyreactivity
